No end group written: not given here. *: point of attachment. Biotin = O=C1N[C@H]2[C@H](CS[C@H]2CCCCC(=O)*)N1
Columns and labels:
[1] = molecular target: T1, Elongated peptide PMKTMKGPFGG; assay: competitive ELISA, peptide against coated Biotin-K-PMKTMKGPFG
T1 construct: Selection peptide with one extra glycine at the C-terminus
T1 peptide: PMKTMKGPFGG
From the text: (§1) The PRO-C16 amino acid sequence 1595′-[…] (SEQ ID NO: 1) located at the C-terminal was used to generate an antibody specific for the C-terminal of col-16. It was additionally used to design the selection peptide ([…]; SEQ ID NO: 1) (Table 1). The sequence was BLASTed for homology to other human proteins and species using the NPS@: network protein sequence analysis with the Uniprot/Swiss-Prot database (20). The amino acid sequence is unique to human col-16. A biotinylated peptide (Biotin-K-[…]) was used to coat the streptavidin-coated plates applied in the ELISA. An elongated peptide ([…]; SEQ ID NO: 2), a truncated peptide ([…]; SEQ ID NO: 3), a nonsense peptide ([…]; SEQ ID NO: 5) and a nonsense biotinylated peptide (Biotin-[…]; SEQ ID NO: 6) were included to test the specificity of the antibody.
(§2) The PRO-C16 competitive ELISA procedure was as follows; a 96-well streptavidin-coated microtiter plate was coated with 100 µl of biotinylated peptide (Biotin-K-[…]; SEQ ID NO: 4) dissolved in assay buffer (50 mM PBS-BTB, 4 g/l NaCl, pH 7.4) (final concentration of […]). The plate was incubated for 30 minutes at 20° C. with shaking (300 rpm) and then washed five times in washing buffer (20 mM TRIS, 50 mM NaCl, pH 7.2). A volume of 20 µl of sample/control/selection peptide ([…]; SEQ ID NO: 1) was added followed by immediately addition of 100 µl of monoclonal antibody diluted in assay buffer (final concentration of 62.5 ng/ml). The plate was incubated for 1 hour at 20° C. with shaking followed by five washes in washing buffer. Then, 100 µl of goat anti-mouse HRP-conjugated IgG antibody (Thermo Scientific, Waltham, MA, USA; cat. #31437) diluted in assay buffer (final concentration of 130 ng/ml) was added to each well. […] To stop the reaction of TMB, 100 µl of 1% H₂SO₄ was added and the plate was analyzed in a VersaMax ELISA microplate reader at 450 nm with 650 nm as reference. A standard curve was plotted using a 4-parametric mathematical fit model and data were analyzed using the Softmax Pro v. […]

[2] = molecular target: T2, Truncated peptide PMKTMKGPF; assay: competitive ELISA, peptide against coated Biotin-K-…
T2 construct: Selection peptide without its C-terminal glycine
T2 peptide: PMKTMKGPF
From the text: as §1, §2

[3] = molecular target: T3, Nonsense peptide VPKDLPPDTT (not fully specified); assay: as above
T3 construct: Control peptide
T3 peptide: VPKDLPPDTT
From the text: as §1, §2

[4] = molecular target: T4, Nonsense biotinylated peptide Biotin-VPKDLPPDTT; assay: ELISA with the nonsense biotinylated peptide on streptavidin plates
T4 construct: Control coating peptide
T4 peptide: Biotin-VPKDLPPDTT

- binding result [1]: no binding
- binding result [2]: no binding
- binding result [3]: no binding
- binding result [4]: no binding
B1: monoclonal antibody of the PRO-C16 assay, raised against KLH-CGG-… (antibody, mouse IgG2b, kappa, V domains shown)
VH: EVQLQQSGAELVRSGASVKLSCTASGFNIKDYYIHWVKQRPEQGLEWIGWIDHDNGDTEYDPKFQGKATLTADTSSNTAYLQLSSLTSEDTAVYYCNAKGPRYGYEEDWFAYWGQGTLVTVST
VL: DVLMTQTPLSLPVSLGDQASISCRSSQSIVHNNGNTYLEWFLQKPGQSPKLLIYKVSNRFSGVPDRFSGSGSGTDFTLRISRVEADDLGVYYCFQGSHVPRTFGGGTKLEIKR
notes: also called PRO-C16 antibody; C16-C
